Test [1] has as its target T1, Human SLIT2-N (human, UniProt O94813 31-1121, limits assumed).
T1 construct: domain: SLIT2-N (N terminal fragment); Soluble analyte in SPR, d2-labelled in HTRF, overexpressed on HEK293 cells in flow cytometry; also called human SLIT2-N (N terminal fragment)
T1 sequence (looked up): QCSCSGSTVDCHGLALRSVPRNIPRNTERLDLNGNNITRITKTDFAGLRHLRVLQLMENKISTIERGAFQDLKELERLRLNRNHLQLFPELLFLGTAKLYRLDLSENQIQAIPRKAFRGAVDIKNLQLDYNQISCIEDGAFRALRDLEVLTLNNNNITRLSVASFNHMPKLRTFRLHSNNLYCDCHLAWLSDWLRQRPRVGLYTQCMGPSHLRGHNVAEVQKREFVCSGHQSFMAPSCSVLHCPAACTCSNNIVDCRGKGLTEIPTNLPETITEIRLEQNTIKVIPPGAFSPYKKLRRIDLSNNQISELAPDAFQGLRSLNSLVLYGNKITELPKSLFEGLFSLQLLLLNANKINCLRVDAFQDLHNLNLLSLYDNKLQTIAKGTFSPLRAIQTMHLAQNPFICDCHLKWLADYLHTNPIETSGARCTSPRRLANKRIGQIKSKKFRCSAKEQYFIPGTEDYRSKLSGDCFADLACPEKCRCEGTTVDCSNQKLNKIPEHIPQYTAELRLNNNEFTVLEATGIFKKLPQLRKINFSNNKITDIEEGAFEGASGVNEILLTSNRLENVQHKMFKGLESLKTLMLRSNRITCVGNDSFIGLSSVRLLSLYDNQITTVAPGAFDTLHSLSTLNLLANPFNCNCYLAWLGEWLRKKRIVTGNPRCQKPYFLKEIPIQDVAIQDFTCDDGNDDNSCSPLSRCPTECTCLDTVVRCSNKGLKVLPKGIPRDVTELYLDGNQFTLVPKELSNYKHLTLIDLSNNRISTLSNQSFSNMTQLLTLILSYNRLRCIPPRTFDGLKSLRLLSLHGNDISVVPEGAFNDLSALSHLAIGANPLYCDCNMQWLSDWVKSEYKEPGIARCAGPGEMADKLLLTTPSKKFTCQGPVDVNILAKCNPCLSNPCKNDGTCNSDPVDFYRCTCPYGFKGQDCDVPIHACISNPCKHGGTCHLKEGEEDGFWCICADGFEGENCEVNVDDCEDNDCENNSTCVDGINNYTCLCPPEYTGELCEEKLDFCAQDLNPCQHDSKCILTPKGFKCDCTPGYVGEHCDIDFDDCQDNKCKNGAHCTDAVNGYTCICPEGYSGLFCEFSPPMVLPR
Description: summary of the Examples (FIGS. 11-13) against ROBO2-Fc 2.2.

Test [2] addresses T1, Human SLIT2-N. The test can be described thus: flow cytometry, AF647-labelled ROBO2-Fc S17T/R73Y on HEK293 cells overexpressing human SLIT2-N (FIG. 11). The protocol:
After incubation, […] FACS buffer was added per well to wash the cells. After washing, cells were resuspended in buffer for data acquisition on a Fortessa Flow Cytometer.

In test [3] the target is T1, Human SLIT2-N. Description: HTRF competition: d2-labelled human SLIT2-N binding to ROBO2 on HEK293 cells (competitor: cell surface ROBO2) (FIG. 12). The protocol: After incubation, fluorescence at 665 nm and 620 nm was measured on an Envision multilabel plate reader. The HTRF Ratio was calculated as follows: fluorescence at 665 nm/fluorescence at 620 nm×10,000.
Background: In TR-FRET formats the signal depends on donor and acceptor labels being close together.

B1: ROBO2-Fc S17T/R73Y (Fc fusion)
chain: SRLRQEDFPPRIVEHPTDVIVSKGEPTTLNCKAEGRPTPTIEWYKDGERVETDKDDPRSHRMLLPSGSLFFLYIVHGRRSKPDEGSYVCVARNYLGEAVSRNASLEVALLRDDFRQNPTDVVVAAGEPAILECQPPRGHPEPTIYWKKDKVRIDDKEERISIRGGKLMISNTRKSDAGMYTCVGTNMVGERDSDPAELTVFERGGSGGSEPKSSDKTHTCPPCPAPEAAGAPSVFLFPPKPKDTLMISRTPEVTCVVVDVSHEDPEVKFNWYVDGVEVHNAKTKPREEQYNSTYRVVSVLTVLHQDWLNGKEYKCKVSNKALPAPIEKTISKAKGQPREPQVYTLPPSREEMTKNQVSLTCLVKGFYPSDIAVEWESNGQPENNYKTTPPVLDSDGSFFLYSKLTVDKSRWQQGNVFSCSVMHEALHNHYTQKSLSLSPGK
notes: Labelled with Alexa Fluor 647 in the flow cytometry assay; also called ROBO2-Fc 517T/R73Y; ROBO2-Fc S17T/R73Y-AF647
With B1, the “fold increase of binding affinity to SLIT2 against SEQ ID NO: 1” value in test [1] was about 10 fold. This molecule also registered an EC50 in test [2] of 2.5 nM. In test [3], this molecule registered an IC50 of 1.4 nM.

One may read the EC50 as the concentration that produces a half-maximal response. A high value points to lower potency in that assay. By IC50 is commonly meant the point on the concentration scale where inhibition reaches its midpoint. A low value points to greater potency in that assay.

(Values after patent publication US20210214414A1 (Pfizer, published 2021).)
